Earlier results in article PMC7194015, “Proline-Rich Antimicrobial Peptides in Medicinal Maggots of Lucilia sericata Interact With Bacterial DnaK But Do Not Inhibit Protein Synthesis” (Frontiers in Pharmacology, 2020).

Molecular target: DnaK (Escherichia coli) (UniProt P0A6Y8)
Sequence (P0A6Y8 2-638): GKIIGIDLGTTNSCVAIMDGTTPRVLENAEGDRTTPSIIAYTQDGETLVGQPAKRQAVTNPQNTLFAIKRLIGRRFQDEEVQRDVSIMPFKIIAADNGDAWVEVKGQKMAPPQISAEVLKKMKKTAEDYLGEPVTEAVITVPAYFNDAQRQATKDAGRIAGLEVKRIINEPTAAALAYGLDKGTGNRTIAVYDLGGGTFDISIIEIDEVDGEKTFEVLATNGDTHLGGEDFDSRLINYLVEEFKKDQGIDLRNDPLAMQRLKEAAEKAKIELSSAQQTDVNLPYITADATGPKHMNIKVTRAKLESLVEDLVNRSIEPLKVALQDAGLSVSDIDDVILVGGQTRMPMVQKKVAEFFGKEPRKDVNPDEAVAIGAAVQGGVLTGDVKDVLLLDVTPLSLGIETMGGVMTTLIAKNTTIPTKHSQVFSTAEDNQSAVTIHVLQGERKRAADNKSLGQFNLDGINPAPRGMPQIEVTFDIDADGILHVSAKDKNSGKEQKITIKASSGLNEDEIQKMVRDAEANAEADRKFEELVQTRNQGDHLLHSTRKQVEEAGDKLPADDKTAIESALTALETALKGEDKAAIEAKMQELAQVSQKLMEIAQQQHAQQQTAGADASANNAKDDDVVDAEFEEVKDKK

Sequence of abaecin (P81463 whole entry): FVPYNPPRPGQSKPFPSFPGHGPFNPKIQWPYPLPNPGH

Kd: 0.1 µM
Substance: abaecin (from UniProt P81463)
